Broadly, the Kd is the free concentration of one partner at which half of the binding sites on the other are occupied at equilibrium, for simple one-to-one binding. The low end stands for tighter binding, the high end for weaker binding. What is called IC50 is the concentration that inhibits the measured activity by half. Low values mean greater potency in that assay, high ones weaker potency in that assay.

The values that follow come from the Immune Epitope Database (IEDB).

One test addresses HLA-A*01:01. Briefly: IEDB peptide-MHC binding, purified MHC/direct/fluorescence; filed as Kd, often an IC50 or EC50 that approximates it; ≥ and ≤ were set here for values at or beyond the usual limits of such assays.
For the next test, the target named is HLA-A*02:01. Described as above.
In the next test the target is HLA-A*11:01. Described as above.
The target of test [1] is HLA-A*31:01. The description is as above.
The target of a further test is HLA-A*68:02. Described as above.
The next test has as its target HLA-A*69:01. Described as above.
Test [2] addresses HLA-B*15:01. Described as above.
The target in the next test is HLA-B*15:17. The test is described as above.
The next test concerns the target HLA-B*18:01. The description is as above.
For test [3], the target named is HLA-B*40:01. The description is as above.
The next test concerns the target HLA-B*46:01. The description is as above.
In another test the target is HLA-B*48:01. The description is as above.
Another test deals with HLA-B*57:01. The test is described as above.
The target of test [4] is HLA-B*58:01. The description is as above.
Another test deals with HLA-A*02:06. The test is described as follows: IEDB peptide-MHC binding, purified MHC/competitive/fluorescence; filed as Kd, often an IC50 or EC50 that approximates it; ≥ and ≤ were set here for values at or beyond the usual limits of such assays. Particulars: source organism: Ehrlichia chaffeensis.
The target in test [5] is HLA-A*26:01. The test is described as above. The settings on record: source organism: Ehrlichia chaffeensis.
In test [6] the target is HLA-A*26:03. Described as above. The settings on record: source organism: Ehrlichia chaffeensis.
The target in test [7] is HLA-B*07:02. The test is described as above. The settings on record: source organism: Ehrlichia chaffeensis.
In test [8] the target is HLA-B*27:05. The test is described as above. The settings on record: source organism: Ehrlichia chaffeensis.
The next test concerns the target HLA-B*35:01. The test is described as above. The settings on record: source organism: Ehrlichia chaffeensis.
Test [9] concerns the target HLA-A*03:01. The test is described as follows: IEDB peptide-MHC binding, purified MHC/direct/fluorescence; filed as Kd, often an IC50 or EC50 that approximates it; ≥ and ≤ were set here for values at or beyond the usual limits of such assays.
Test [10] deals with HLA-A*26:01. The description is as above.
Test [11] addresses HLA-A*26:03. The test is described as above. The settings on record: source organism: Burkholderia mallei ATCC 23344.
Test [12] deals with HLA-B*07:02. Described as above.
Test [13] concerns the target HLA-B*27:05. The test is described as above.
Test [14] has as its target HLA-B*15:01. Briefly: IEDB peptide-MHC binding, purified MHC/competitive/fluorescence; filed as Kd, often an IC50 or EC50 that approximates it; ≥ and ≤ were set here for values at or beyond the usual limits of such assays.
A further test deals with HLA-A*30:01. Briefly: IEDB peptide-MHC binding, purified MHC/direct/fluorescence; filed as Kd, often an IC50 or EC50 that approximates it; ≥ and ≤ were set here for values at or beyond the usual limits of such assays. The settings on record: source organism: Rickettsia sibirica.
Another test deals with HLA-B*08:01. The description is as above. Particulars: source organism: Rickettsia sibirica.
The target of another test is HLA-B*44:02. The test is described as above. The settings on record: source organism: Rickettsia sibirica.
Test [15] deals with HLA-A*03:01. The test is described as follows: IEDB peptide-MHC binding, purified MHC/competitive/fluorescence; filed as Kd, often an IC50 or EC50 that approximates it; ≥ and ≤ were set here for values at or beyond the usual limits of such assays. Particulars: source organism: Influenza A virus H3N2.
The target in test [16] is HLA-A*31:01. Described as above. The settings on record: source organism: Influenza A virus H3N2.
The target of a further test is HLA-A*68:23. Described as above.
Another test deals with HLA-B*15:42. Described as above.
Another test concerns the target HLA-B*45:06. Described as above.
For a further test, the target named is HLA-B*83:01. The test is described as above.
The next test deals with HLA-C*06:02. The test is described as follows: IEDB peptide-MHC binding, purified MHC/direct/fluorescence; filed as Kd, often an IC50 or EC50 that approximates it; ≥ and ≤ were set here for values at or beyond the usual limits of such assays. The settings on record: source organism: Yersinia pseudotuberculosis IP 31758.
In test [17] the target is HLA-B*40:01. The test is described as follows: IEDB peptide-MHC binding, purified MHC/competitive/fluorescence; filed as Kd, often an IC50 or EC50 that approximates it; ≥ and ≤ were set here for values at or beyond the usual limits of such assays. Particulars: source organism: Yersinia pseudotuberculosis IP 31758.
For test [18], the target named is HLA-B*58:01. Briefly: IEDB peptide-MHC binding, purified MHC/competitive/fluorescence; ≥ and ≤ were set here for values at or beyond the usual limits of such assays. Particulars: source organism: Homo sapiens.
[19] abbreviates: source organism: Brucella abortus 2308.
Setting [20] is: source organism: Burkholderia mallei.
Setting [21] is: source organism: Rickettsia sibirica.
Setting [22] is: source organism: Influenza A virus H3N2.
[23] abbreviates: source organism: Yersinia pseudotuberculosis IP 31758.

For RVYKNYDPR, the Kd was no less than 20 µM with HLA-A*01:01 (setting [19]); no less than 20 µM with HLA-A*02:01 (setting [19]); 0.101 µM with HLA-A*11:01 (setting [19]); 0.0513 µM with HLA-A*31:01 [1] (setting [19]); no less than 20 µM with HLA-A*68:02 (setting [19]); no less than 20 µM with HLA-A*69:01 (setting [19]). The Kd with HLA-B*15:01 [2] (setting [19]), with HLA-B*15:17 (setting [19]), in the test with HLA-B*18:01 (setting [19]), in the test with HLA-B*40:01 [3] (setting [19]), with HLA-B*46:01 (setting [19]) and in the test with HLA-B*48:01 (setting [19]) was no less than 20 µM throughout. The Kd with HLA-B*57:01 (setting [19]), with HLA-B*58:01 [4] (setting [19]), in the test with HLA-A*02:06, with HLA-A*26:01 [5], in the test with HLA-A*26:03 [6] and in the test with HLA-B*07:02 [7] was no less than 20 µM in each case. Besides, the Kd in the test with HLA-B*27:05 [8] was found to be 1.06 µM; with HLA-B*35:01 it was 1.67 µM.
On to IQRRGAQFQ, for which the Kd with HLA-A*01:01 (setting [20]), in the test with HLA-A*02:01 (setting [20]), in the test with HLA-A*03:01 [9] (setting [20]), in the test with HLA-A*11:01 (setting [20]), in the test with HLA-A*26:01 [10] (source organism: Burkholderia mallei ATCC 23344) and with HLA-A*26:03 [11] was no less than 20 µM throughout. Further, the Kd with HLA-A*31:01 [1] (setting [20]), with HLA-A*68:02 (setting [20]), with HLA-B*07:02 [12] (setting [20]), in the test with HLA-B*15:17 (setting [20]), with HLA-B*18:01 (setting [20]) and with HLA-B*27:05 [13] (setting [20]) was no less than 20 µM each time. Further, the Kd was no less than 20 µM in the test with HLA-B*40:01 [3] (setting [20]); no less than 20 µM with HLA-B*46:01 (setting [20]); no less than 20 µM with HLA-B*48:01 (setting [20]); no less than 20 µM with HLA-B*57:01 (setting [20]); no less than 20 µM with HLA-B*58:01 [4] (setting [20]); 3.18 µM in the test with HLA-B*15:01 [14] (source organism: Burkholderia mallei SAVP1).
Turning to AIKPITDQF, the Kd in the test with HLA-A*01:01 (setting [21]) was no less than 20 µM; with HLA-A*02:01 (setting [21]), no less than 20 µM; with HLA-A*03:01 [9] (setting [21]), no less than 20 µM; in the test with HLA-A*26:01 [10] (setting [21]), no less than 20 µM; with HLA-A*30:01, 8.09 µM; with HLA-A*31:01 [1] (setting [21]) it was no less than 20 µM. Also, the Kd was no less than 20 µM with HLA-A*69:01 (setting [21]); 5.83 µM with HLA-B*07:02 [12] (setting [21]); no less than 20 µM with HLA-B*08:01; no less than 20 µM in the test with HLA-B*15:01 [2] (setting [21]); no less than 20 µM in the test with HLA-B*27:05 [13] (setting [21]); no less than 20 µM with HLA-B*40:01 [3] (setting [21]). The values for the Kd with HLA-B*44:02 and in the test with HLA-B*58:01 [4] (setting [21]) were no less than 20 µM and no less than 10 µM, respectively.
Turning to FSFGGFTFK, the Kd with HLA-A*03:01 [15] is 0.0037 µM; with HLA-A*31:01 [16], no more than 0.001 µM; with HLA-A*68:23 (setting [22]), 0.0219 µM; with HLA-B*15:42 (setting [22]), no less than 5 µM; with HLA-B*45:06 (setting [22]), no less than 5 µM; with HLA-B*83:01 (setting [22]), no less than 5 µM.
On to RQMRASAPL, for which the Kd is no less than 20 µM with HLA-C*06:02; 0.0024 µM with HLA-A*68:23 (setting [23]); 0.145 µM in the test with HLA-B*15:01 [14] (setting [23]); no less than 5 µM with HLA-B*15:42 (setting [23]); 0.0181 µM in the test with HLA-B*40:01 [17]; no less than 5 µM with HLA-B*45:06 (setting [23]). In the test with HLA-B*83:01 (setting [23]), this sequence registered a Kd of no less than 5 µM.
In the test with HLA-B*58:01 [18], QSSGSSSSGF returned an IC50 of no less than 20 µM.
